Test results taken from patent US20050107585A1 (UNIVERSITY OF KANSAS, published 2005).
Where no end group is shown, it is not given here. [ ]: non-standard residue; d: D form. Ahx = NCCCCCC(=O)O

Columns and labels:
[1] = biological target: T1, ICAM-1 on NOD mouse APC / spleen cells (mouse (NOD), UniProt P13597 28-537); experiment: flow cytometry on live APC, blocking by mAb
T1 construct: whole, on cells; Native ICAM-1 on live NOD spleen cells
Experimental: J. Immunol. 2337-2344 (1994). Spleen cell density-gradient fractions from normal (unimmunized) NOD, BALB/c and other MHC congenic strains were incubated in round bottom 96-well plates with increasing concentrations of individual biotinylated peptides at 37° C.,5% CO₂ for 16 hours. Following binding of the BPI to the APC, Avidin-FITC was incubated with the cells on ice for 30 minutes, followed bybiotinylated anti-Avidin for 1 hour, then again with Avidin-FITC. For BPI titrations, increasing concentrations (0.1-100 μM) of the biotinylated derivatives in sterile 0.5% BSA-PBS were incubated with the APC for 16 hours as above.
To test for competitive inhibition of BPI binding with unlabeled peptides or monoclonal antibodies to MHC-II and ICAM-1 on live APC, freshly isolated fractions of spleen cells were incubated with the previously biotinylated BPI. However, for this portion of the experiment, the experimental wells contained various unlabeled peptides (e.g., antigenic peptides or LFA-1 peptides), and/or monoclonal antibody (e.g., anti-MHC-II or anti-ICAM-1 mAb) inhibitors. Negative selection methods with monoclonal antibodies conjugated to magnetic particles were used to enrich the spleen cell fractions for B cells, macrophages, or dendritic cells as well as to examine differences in BPI binding to these different populations. […]

[2] = biological target: T1, ICAM-1 on NOD mouse APC / spleen cells; experiment: co-capping, fluorescence microscopy, T-depleted spleenocytes of NOD mice given the BPI i.v.
Experimental: To test the ability of the BPI peptide to link MHC-II and ICAM-1 molecules on the APC surface, we used a modification of a co-capping experiment originally described for monoclonal antibodies. […] Antibody-bound cells are then incubated with streptavidin (37 C×15 min.) to cap the MHC-II molecules on the APC surface. The cells were transferred to ice and labeled with a fluorescent (PE) monoclonal antibody to ICAM-1 (3E2). The cells are plated and observed for evidence that a given BPI links ICAM-1 into the MHC-II cap, i.e., by standard fluorescence microscopy and image analysis.

T1 sequence (P13597 28-537): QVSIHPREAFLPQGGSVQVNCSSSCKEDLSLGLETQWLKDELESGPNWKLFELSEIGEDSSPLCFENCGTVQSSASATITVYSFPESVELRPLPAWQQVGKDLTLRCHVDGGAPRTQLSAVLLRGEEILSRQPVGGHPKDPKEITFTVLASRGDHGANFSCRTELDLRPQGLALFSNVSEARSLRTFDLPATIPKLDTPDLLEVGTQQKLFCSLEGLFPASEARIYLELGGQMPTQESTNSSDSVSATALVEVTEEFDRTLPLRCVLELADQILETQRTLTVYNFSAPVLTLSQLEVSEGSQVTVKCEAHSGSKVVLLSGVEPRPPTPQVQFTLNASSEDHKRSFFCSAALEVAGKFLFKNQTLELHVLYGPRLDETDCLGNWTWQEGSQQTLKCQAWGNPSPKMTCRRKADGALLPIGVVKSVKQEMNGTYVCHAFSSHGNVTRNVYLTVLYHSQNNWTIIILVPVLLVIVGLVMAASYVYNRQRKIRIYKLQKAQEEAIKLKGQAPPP

Binder	binding result [1]	binding result [2]
EIAPVFVLLE[Ahx]G[Ahx]G[Ahx]ITDGEATDSG (also: biotinylated with NHS-Biotin, site not given here, also called diabetes BPI; GAD 65 BPI) [biotinylated EGAD-BPI (GAD65(208-217)-[Ac-G-Ac-G-Ac]-CD11a (237-247))]	binds	–
EIAPVFVLLE[Ahx]G[Ahx]G[Ahx]ITDGEATDSG (also called diabetes BPI) [EGAD-BPI (GAD65(208-217)-[Ac-G-Ac-G-Ac]-CD11a (237-247)), unlabeled]	–	binds
